In patent US20240352438A1, “MEANS AND METHODS FOR DETOXIFYING OCHRATOXIN A” (DSM Austria GmbH, priority 2021, published 2024):
Positions count from the first letter of the chain named.

B1: SEQ ID NO: 2: exemplary OTA-hydrolyzing polypeptide 2 belonging to the amidohydrolase protein family (protein)
chain: MYSLAIRNGIVFDGEKFIGKTNIYVDGDKIVKITNERLDAKEEVNAEGYFVMPGLIDAHLHLTGIRGGSLLMGYLLDDPRTRLLRAANWARELLMAGFTTVRDCGEPNSIILRNAINEGIIPGPRIIAAGSPITQTFGHAELSHSLPLEWSIQLGFGEICDGVDECIKAARKVLRSGADFIKIMATGGVLSERDRPEWPQLTPEEMSAIVREAEKVGTYVAAHAHGDKGARIAVEAGVRTIEHGSLITEETVKLMAEKGVSLTPTLSIQELIYKYGKQMGIDPWGLEKIGQVREGVINSIKLARKYGVMILAGTDLGFKTGLDIDMGKNWVEVKLLVELGGLSSEEALRAATGNASKMLRLNTGIIREGYLADIVLINGNPLENINDIARVSTVIKGGKVTVENGKLI
modifications: polypeptide 2
notes: exemplary OTA-hydrolyzing polypeptide 2 belonging to the amidohydrolase protein family
B2: 72 (protein)
chain: MTTRTRILTAFLSLLAANACAADAAPAAPHTVVLRAARMFDGASGKLVDHPQLTIVGNKIVRIAQGDKAEVPAGAEVVDLGDATLLPGFIDAHVHLSGQSSDNWYGDFFDNMMRFPAEQALYGAYYARITLEAGFTSVRDVGSTDWVALGLRNAIDAGKVPGPRMLVSNYAVGSTGGHADQDPIPPHKLPLAGPLQGVCNGPEECRAAVRYQIKYGANVIKFCPSGGVLSLSDPVDAPELSQDEMNAVIGESHAWGRKVAAHAHGDKAAKMAVAAGVDSIEHGSFIEDDTLRAMKAKNVYLVPTISAIAHVEEKIGTFPPVIAEKGRAAAAHLRQTFRHAVQIGVPIALGTDAGVGAHGSNAREFRYMVENGLTPAQALLAGTANAARLLGTFDRVGTLEAGKLADVVAVPGNPIADITVTERPLFVMKDGVVVRRDAVR
modifications: exemplary polypeptide
B3: 77 (protein)
chain: B2 chain with C223M, A307G, V311A
modifications: exemplary polypeptide
B4: 49 (protein)
chain: B2 chain with T144A, C223M
modifications: exemplary polypeptide
B5: 48 (protein)
chain: B2 chain with F109A, C223M
modifications: exemplary polypeptide
B6: 73 (protein)
chain: B2 chain with C223A
modifications: exemplary polypeptide
B7: 80 (protein)
chain: B2 chain with C223M, A307G, V355A
modifications: exemplary polypeptide
B8: 50 (protein)
chain: B2 chain with A171P, C223M
modifications: exemplary polypeptide

Tests used:
[1] = Feeding trial in pigs: OTA concentration in plasma and urine; assay type: in vivo; details: for % OTA reduction, plasma samples / % OTA reduction, urine samples: day 14
Protocol: To further study an application of the enzymes referred to herein as additives e.g. for feed or food, feeding trials were conducted in pigs. Exemplarily, either of the enzymes having either the amino acid sequence of SEQ ID NO: 1 or 2 were produced by cultivation of E. coli transformants in bioreactors by applying methods known to a person having skill in the art. The cell broth was homogenized and centrifuged. The supernatant was concentrated, dried by lyophilization and formulated as a powder by grinding. The enzymatic activity of the thus obtained lyophilized powder was determined, and the powder was mixed with feed for the feeding trial as described in the following.
Thirteen piglet groups were studied based on the following experimental diet setups: 1) Base feed; 2) base feed+50 ppb OTA; 3) base feed+50 ppb OTA+2.62 U of the enzyme of SEQ ID NO: 1 per kg of feed; 4) base feed+50 ppb OTA+0.29 U of the enzyme of SEQ ID NO: 2 per kg of feed; 5) base feed+500 ppb OTA; 6) base feed+500 ppb OTA+2.62 U of the enzyme of SEQ ID NO: 1 per kg of feed; 7) 500 ppb OTA+0.29 U of the enzyme of SEQ ID NO: 2 per kg of feed.
Each trial group consisted of four piglets weighing approximately 7-8 kg, who were coming out from weaning and adapted to solid diet before being fed the experimental diet as described above. The duration of the feeding trial (i.e. actual days of feeding the experimental diet) was fourteen days. Collectively each trial group consumed around 15 kg of feed. No piglets fell sick to any unexpected disease throughout the feeding trial. Urine and blood samples were collected on day 0, just before starting the experimental diet, and on day 14.
Extraction of OTA was performed from plasma and urine samples for subsequent analysis by HPLC-MS. 200 μL of sample was thoroughly mixed with 800 μL of extraction solution (containing 99% of ethyl acetate and 1% of phosphoric acid, 85%) followed by centrifugation at 19000×g for 5 min for phase separation. 50 μL of upper phase was diluted with 50 μL of acetonitrile, followed by HPLC-MS analysis. The HPLC-MS method as described by Dellafiora et al. (2020, Toxins 12, 258) was used to determine the changes in OTA concentration in the samples taken during the trial upon consumption of the experimental diets. The results are shown in Table 18 using the diet setup numbering as indicated above.

[2] = Pelleting trial: degradation of spiked OTA to OTalpha in mash feed and resuspended pellets; details: for OTalpha %: formed OTalpha; for OTA %: remaining OTA
Protocol: To verify the suitability of the enzymes referred to herein as additives e.g. for feed or food, pelleting trials were conducted. As an example, 1.15 U or 0.06 U of either of the enzymes having either the amino acid sequence of SEQ ID NO: 1 or 2 was homogeneously mixed with one kg of mash feed and subjected to standard feed pelleting process where the temperature of the conditioner was set to either 75, 80, 85, 90 or 95° C. in five separate batches of feed pelleting. The effect of pelleting process on the stability of enzyme was estimated by calculation of percentage degradation of spiked OTA to OTalpha in resuspended pellets. Untreated mash was analyzed applying the following protocol: 50 μL of 10 ppm OTA were spiked to g of dry sample, directly before starting the assay by adding 4.95 mL RO-water (37° C.). The suspension was incubated in 50 mL tubes in an overhead shaker at 37° C. for 60 min. The reaction was stopped by adding 1 mL 6 M phosphoric acid followed by another incubation in a rotary shaker at room temperature for 10 min. Subsequently 30 μL of ^13C-labeled OTA/^13C-labeled OTalpha (each 1 ppm) internal standard were added to each sample and mixed. 30 mL ethyl acetate were added followed by shaking for 60 min at 80 rpm on an overhead shaker. After centrifugation (10 min, 3214 rcf), 8 mL of the organic upper phase were transferred to a new 50 mL tube. 4 mL of 0.1 M NaHCO3 (pH 8.2) were added. After shaking for 1 min at 80 rpm on an overhead shaker, sample was centrifuged again (10 min, 3214 rcf) and 3 mL of the aqueous lower phase transferred to a new 15 mL tube. 70 μL 85% phosphoric acid and 1.5 mL ethyl acetate were added and shaken for 1 min at 80 rpm at an overhead shaker. After centrifugation (10 min, 3214 rcf) 50 μL organic upper phase were added to 50 μL acetonitrile in a silanized HPLC vial and thoroughly mixed. OTA and OTalpha content was determined by HPLC MS/MS method as described by Dellafiora et al. (2020, Toxins 12, 258) to determine the percentage of OTA degradation to form OTalpha.

[3] = OTA detoxification activity assay (specific activity, fluorescence reduction ex/em 390/450 nm); assay type: biochemical; details: SEQ ID NO: 1 = 100%
In short: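 Recombinant enzyme preparation with 200 ng/mL OTA in 100 mM sodium phosphate, at pH 6.0 and pH 7.5, 37° C. Degradation followed as the fall in fluorescence at ex/em 390/450 nm. Specific activity taken from the initial linear slope; one unit degrades 1 μmol OTA per min at a starting OTA of […].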

[4] = Thermostability assay: residual OTA detoxification activity after 10 min incubation at 45-99° C. (T50); assay type: physicochemical; details: 0.1 mg/mL protein in 20 mM Tris-HCl pH 7.5, residual OTA detoxification activity relative to 4° C. reference aliquot
In short: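 Purified enzyme at 0.1 mg/mL in 20 mM Tris-HCl pH 7.5 was heated 10 min at 45–99 °C, then held at 4 °C. Residual OTA detoxification activity was expressed relative to an aliquot kept at 4 °C throughout; T50 is the temperature range giving 50% activity loss.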

[5] = 500 ppb OTA+enzyme (2.62 U SEQ ID NO: 1 or 0.29 U SEQ ID NO: 2 per kg of feed)
[6] = base feed+50 ppb OTA+enzyme (2.62 U SEQ ID NO: 1 or 0.29 U SEQ ID NO: 2 per kg of feed)
[7] = mash before pelleting, 1.15 U or 0.06 U enzyme per kg mash feed, 37° C., 60 min

Molecule | Specific OTA detoxification activities in % compared to the enzyme of SEQ ID NO: 1, pH 6.0 [3] [%] | Specific OTA detoxification activities in % compared to the enzyme of SEQ ID NO: 1, pH 7.5 [3] [%] | T50 (temperature at which 50% of the initial activity was maintained) [4] | further results
B1 | – | – | – | OTA concentration in plasma samples, Day 14 [1, 5]: 107 ± 31 ppb; OTA concentration in urine samples, Day 14 [1, 5]: 4 ppb; % OTA reduction, plasma samples [1, 5]: 74%; % OTA reduction, urine samples [1, 5]: 80%; OTA concentration in plasma samples, Day 14 [1, 6]: 11 ± 3 ppb; OTA concentration in urine samples, Day 14 [1, 6]: 0 ppb; % OTA reduction, plasma samples [1, 6]: 73%; % OTA reduction, urine samples [1, 6]: 100%; OTalpha % ([2]; after pelleting at 75° C.): 84%; OTalpha % ([2]; after pelleting at 80° C.): 88%; OTalpha % ([2]; after pelleting at 85° C.): 84%; OTalpha % ([2]; after pelleting at 90° C.): 88%; OTalpha % ([2]; after pelleting at 95° C.): 87%; OTalpha % [2, 7]: 80%; OTA % ([2]; after pelleting at 75° C.): 16%; OTA % ([2]; after pelleting at 80° C.): 12%; OTA % ([2]; after pelleting at 85° C.): 16%; OTA % ([2]; after pelleting at 90° C.): 12%; OTA % ([2]; after pelleting at 95° C.): 13%; OTA % [2, 7]: 20%
B2 | 34 | 46 | 74.4-77.0 °C | –
B3 | 5 | 3 | 65.3-66.9 °C | –
B4 | 76 | 179 | 68-70 °C | –
B5 | 54 | 102 | <63.2 °C | –
B6 | 20 | 23 | 74.4-77.0 °C | –
B7 | 7 | 3 | 64.0-65.3 °C | –
B8 | 81 | 257 | 64 °C | –
